Assay results from patent US20220195070A1 (Chugai, published 2022).

Experiments:
[1] = biological target: T1, anti-DENV E protein antibody comprising a modified IgG heavy chain constant region (SEQ ID NO: 116); experiment: SPR (Biacore T200), 25 C, pH 7.4; SKA antibody captured by anti-rabbit IgG, anti-DENV E protein antibody injected 0-400 nM
T1 construct: also called anti-DENY E protein antibody; Fc-Mutated Antibody
Source text: (§1) Anti-rabbit IgG was immobilized onto FC 3 and 4 of a CMS sensor chip using an amine coupling kit (GE Healthcare). For the immobilization of anti-rabbit IgG, HBS-EP+, pH7.4 (GE Healthcare) buffer was used as running buffer. After the immobilization, running buffer was changed to phosphate pH7.4 buffer. Each antibody was captured onto FC4 of the sensor chip by anti-rabbit IgG. The amount of Anti Fc-Mutation Antibody to be captured was adjusted so that the number of resonance units (RU) was 100.

[2] = biological target: T1, anti-DENV E protein antibody comprising …; experiment: SPR (Biacore T200), 25 C, pH 7.4; SKA antibody captured by anti-rabbit IgG, anti-DENV E protein antibody injected 0-400 nM; *reliability might be low
Source text: as §1

T1 sequence (constant, as listed by the source limits assumed): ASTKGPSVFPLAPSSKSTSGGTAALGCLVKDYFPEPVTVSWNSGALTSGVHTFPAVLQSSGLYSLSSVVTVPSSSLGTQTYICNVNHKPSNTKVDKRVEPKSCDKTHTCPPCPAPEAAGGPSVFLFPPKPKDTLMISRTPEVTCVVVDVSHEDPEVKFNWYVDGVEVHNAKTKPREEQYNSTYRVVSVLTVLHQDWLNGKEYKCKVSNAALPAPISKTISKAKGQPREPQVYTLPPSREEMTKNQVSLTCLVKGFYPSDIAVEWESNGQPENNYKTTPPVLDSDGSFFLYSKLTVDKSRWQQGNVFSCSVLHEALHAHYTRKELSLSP

| Binder | Kd [1] [nM] | koff [1] [s⁻¹] | kon [1] [M⁻¹ s⁻¹] | Kd [2] [pM] | koff [2] [s⁻¹] |
| --- | --- | --- | --- | --- | --- |
| SKA0027 (antibody, V domains shown, Recombinant rabbit monoclonal from B-cell cloning, expressed in FreeStyle 293-F cells; the first screen used B-cell culture supernatant; also called Anti-SG115 Antibody; rabbit Anti Fc-Mutation Antibody) VH: QEQLVESGGGLVQPEGSLTLTCTASGFSFSSSDYMCWVRQAPGKGLEWIGCIYTGSGSTYYASWAKGRFTISKTSSTTVTLQMTSLTAADTATFFCARRGDSYSNYSFKLWGPGTLVTVSS VL: AFELTQTPASVEAAVGGTVTIKCQASQNIYSNLAWYQQKPGQPPKLLIYTASSLASGVSSRFKGSGSGTEFTLTISDLECDDAATYYCQCTYINNGYGNTFGGGTEVVVKG | 1 | 0.000191 | 190000 | – | – |
| SKA0028 (antibody, V domains shown, Recombinant rabbit monoclonal from B-cell cloning, expressed in FreeStyle 293-F cells; the first screen used B-cell culture supernatant; also called Anti-SG115 Antibody; rabbit Anti Fc-Mutation Antibody) VH: QSVEESGGRLVTPGTPLTLTCTASGFTISSYHMSWVRQAPGKGLEWIGIIHGSGNMWYASWAKGRFTISRTSTTVDLEITSPTTEDTATYFCARIRFWASSNYYYFYLWGQGTLVTVSS VL: ALVMTQTPASVSEPVGGTVTINCQASQNIYSNLAWYQQKPGQRPRLLIYGASNLESGVPSRFRGSGSGTEFTLTISDLECADAATYYCQSAYWGNNNDGAFGGGTEVVVKG | – | 7.27e-05 | 116000 | 626 | – |
| SKA0117 (antibody, V domains shown, Recombinant rabbit monoclonal from B-cell cloning, expressed in FreeStyle 293-F cells; the first screen used B-cell culture supernatant; also called Anti-SG115 Antibody; rabbit Anti Fc-Mutation Antibody) VH: QSLEESGGDLVKPEGSLTLTCTASGFSFSSSHYMCWVRQAPGKGLEWIACIYAGSSDNTYYASWAKGRFTISKTSSTTVTLQMTSLTAADTATYFCARDTYGYVGYASAGGFFNLWGPGTLVTVSS VL: ALVMTQTPASVSAAVGGTVTINCQASHNIYSVLAWYQQKPGQRPRLLIYGASNLESGVPSRFKGSGSGTEYTLTISDLECDDAATYYCQSAYYSSSTGDNAFGGGTEVVVKG | – | – | 126000 | 0.275 | 3.46e-08 |
| SKA0141 (antibody, V domains shown, Recombinant rabbit monoclonal from B-cell cloning, expressed in FreeStyle 293-F cells; the first screen used B-cell culture supernatant; also called Anti-SG115 Antibody; rabbit Anti Fc-Mutation Antibody) VH: QSLEESGGDLVKPGASLTLTCTASGFSFSSSYYMCWVRQAPGKGLEWIACIYAGSSGSTYYASWAKGRFTISKTSSTTVTLQMTSLTAADTATYFCARDGDENMLVGGYFNLWGPGTLVTVSS VL: ALVMTQTPSSVSAAVGGTVTINCQASHNIYSNLAWYQQKPGQRPKLLIYGASNLESGVPSRFKGSGSGTEYTLTISDLECDDAATYYCQSAYYSSNAGYNAFGGGTEVVVKG | 5.04 | 0.00135 | 267000 | – | – |
| SKA0171 (antibody, V domains shown, Recombinant rabbit monoclonal from B-cell cloning, expressed in FreeStyle 293-F cells; the first screen used B-cell culture supernatant; also called Anti-SG115 Antibody; rabbit Anti Fc-Mutation Antibody) VH: QSLEESGGGLVQPEGSLTLSCTASGFSFSSSYYMCWVRQAPGKGLEWIACIYGGNSVITYYANWAKGRFTISETSSTTVTLQMTSLTAADTATYFCAREVHYDYLYTTYGYANLWGPGTLVTVSS VL: AIKMTQTPASVSAVVGGTVTINCQASETIYSGLAWYQQKPGQPPKLLIYDTANLETGVSSRFKGSGSGTEYTLTISDLECDDAATYFCLYAYYSGGSADNAFGGGTEVVVKG | 1.45 | 0.00149 | 1.02e+06 | – | – |
| SKA0001 (antibody, V domains shown, Recombinant rabbit monoclonal from B-cell cloning, expressed in FreeStyle 293-F cells; the first screen used B-cell culture supernatant; also called Anti-SG115 Antibody; rabbit Anti Fc-Mutation Antibody) VH: QSVEESGGRLVTPGTPLTLTCTVSGFSLSYYAMNWVRQAPGKGLEWIGIIGISGGTYYASWAKGRFTISKSSSTTVDLKMTSPTTEDTATYFCARGGSAWGDLWGQGTLVTVSS VL: DIVMTQTPSSVSAAVGGTVTINCQASQSISRLLAWYQQKPGQPPKVLMHDASDLASGVPSRFKGSGSGTEYTLTISDLECADAATYYCQSYYWGSSGDIGYPFGGGTEVVVKG | – | – | 44400 | 2.78 | 1.23e-07 |
